Source: the DeepSol protein solubility set

Test: soluble on expression in E. coli; label from the status in PepcDB or PDB records

| Sequence | soluble on expression in E. coli |
| --- | --- |
| MIKKWLSVALISTAAMMPHTTFASDTLLQKAQQENRQQQTHNASRESGFKKTEQELQAIKNKLVAERAALQAEADTLSVTFSENEAELAQLEEKLRLETGSLGELFGVVRQNAKELESELKHAVTGVDANSYQKDIEAIVAAKSLPTLKQLQAMWRSMEEQVTASGELAKVSFTLLDGEGKEQTVNGVRLGAMALLDDNGYVKWNGQRGDAVNYLRQPENGPTASAFTNGELDSLVIDPSRGILLEQLANSPTLKDRLNAGGVVGQ | not soluble |
| MIKLAPAALKADLQVRQERVRIAMEEEGYDALLVTSNVNLLYLFGSIYGGAAYLPAEGEPIFFVRRPQVIEEGNVCPIRKLEDIPALIQSRGGVLPRRIMLENDESSYSDIKRQHSIFPNAEYGNATALLRRLRMIKTPGEIELFRRTAAIHGEVYACIPSVFRPGMTDREFQVEIEHLMRNYGSEGIFRTFGSAMEIHMGNVIVGDNAESPSPYDFAMGGGGTDALPLGADGSPMKEGMCVMVDMAGNYSAYISDMTRSYAIGKVPDEARRLHDLSREIQAKVMETAEPGMSCADLYKRSVEMAEEAGAADKFMGTKQQAKFVGHGIGLQINEMPVLMARSKEILTPGMVIAFEPKFVLPGIGAVGNENSFLVTESGVEKLTVCSEELIDLLAVAKQ | not soluble |
| MIKLGWASFSNTEFAQDIFIKFANQFYKQDDAGTILFELKKTLGVNQLDEIEKNKKVIIVNQFQNSLGKFLLFNKENTKRINSLANEHISSFLKKIFRLSGFKDMLIDVQHHKKLQKCLLREIHLLVCLINSNQFSDELMQIIEWYQYLKKHSSKLFVITASSDKKPVIEPTINEYKAIFGEYLSSFHLDLKNNQSNDLFQKLLDQIKIKATSKTSLR | soluble |
| MIKMTQSRLHAAQNALAKLHEHRGNTFYPHFHLAPPAGWMNDPNGLIWFNDRYHAFYQHHPMSEHWGPMHWGHATSDDMIHWQHEPIALALGDDNDKDGCFSGSAVDDNGVLSLIYTGHVWLDGAGNDDAIREVQCLATSRDGIHFEKQGVILTPPEGIMHFRDPKVWREADTWWMVVGAKDPGNTGQILLYRGSSLREWAFDRVLAHADAGESYMWECPDFFSLGDQHYLMFSPQGMNAEGYSYRNRFQSGVIPGMWSPGRLFAQSGHFTELDNGHDFYAPQSFLAKDGRRIVIGWMDMWESPMPSKREGWAGCMTLARELSESNGKLLQRPVHEAESLRQQHQSVSPRRISNKYVLQENAQAVEIQLQWALKNSDAEHYGLQLGTGMRLYIDNQSERLILWRYYPHENLDGYRSIPLPQRDTLALRIFIDTSSVEVFINDGEAVMSSRIYPQPEERELSLYASHGVAVLQHGALWLLGLEHHHHHH | soluble |
| MIKYARQIYSTKQEVIMATYFSDNLTADQQNQVQQIIQQFQHPTLQKDLIVLNTLKKVEKGGDTLRIELQLPFAWNSGAEQLKQAVSDALLKATDCKLIKWAVAYQIATLKRANNQPAVKGVKNIIAVSSGKGGVGKSSVSVNLALALQAQGARVGILDADIYGPSIPHMLGAADQRPTSPDNQHITPIKAHGLSANSIGFLMNEDSATIWRGPMASSALSQLLNETLWDSLDYLVIDMPPGTGDIQLTLSQQIPVTGAVVVTTPQDIALLDAVKGISMFERVSVPVLGIVENMSMHICSECGHHEAIFGTGGAEKMAEKYNVKVLAQLPLHIRIREDLDAGNPTVVRVPENEISQAFLQLAEKVSTELYWQGSVIPSEILFKEVKLEHHHHHH | soluble |
| MIKYSIRGENLEVTEAIRDYVVSKLEKIEKYFQPEQELDARINLKVYREKTAKVEVTIPLGSITLRAEDVSQDMYGSIDLVTDKIERQIRKNKTKIERKNKNKVATGQLFTDALVEDSNIVQSKVVRSKQIDLKPMDLEEAILQMDLLGHDFFIYVDVEDQTTNVIYRREDGEIGLLEVKESAAALEHHHHHH | soluble |
| MILGICGSPRKQATEHVLERALSMLEDDGLETEFFTVRGKNISPCRHCDYCLRNKECVLKDDMFPLYELLRRAAGIIIATPVYNGGVSAQIKAIMDRCRALGAEDYDSLRGKVGMGIAVGGDRCGGQEPALMQIHTFYILNGVIPVSGGSFGANLGACFWSRDTLEVLKRTHMDSKPSKRPWACLKGSWTLKDPEILFYSEFILEHHHHHH | not soluble |
| MILINKRAEKQDYQTILAIWEKSVIVTHDFLTAEDRQFYKEQIPLFLDNVELFLWFAGEEVIGFSGTSERELDMLFLDPVATGNGYGSQILGWLIENKRINLVDVNEQNENATRFYLKHGFVVSSRSDLDGFGKPYPILQLQLKERVNGV | soluble |
| MILVGNGRLISQDSLNPYMEDGCVVINDNLIEDIGTTEEMKAKYPVHEFIDAGKKIIMPGLINSHMHIYSSFARGMAVPGKPSENFLEILNNLWWRLDKQLTLEDTKYSAYATYIECIKNGVTTVYDHHASPNAIEGSLFTISDVAKDLGIRTCLCYEVSDRDGGNTIQQGINENVNFIKYAQKDDTDMIKGMFGLHAAFTLSDDTLNKCASEMAGLDTGYHVHVAEGLADLQYNVDKYGKRVLERFNDFGVLKEKTIAVHCIYISAEEISFLNKTNTFVVHNPESNMGNAVGCSPAIELLKRGVTVGLGTDGYTSDMFESLKVANIIHKHHLKDPRVGFEESQTMLFDNNRKIAKAYYKNDLGVLKKGAYADVIVVDYIPHTPLTENTIGGHTIFGMSGRSVDTTIINGKVLMKDRKLINIDEESILAKSRELSQNLWNRI | not soluble |
| MIMANILFIDNFDSFTYNLVDQFRSLGHVVTIYRNNLSADAIEQALLQLDNPVVVLSPGPGAPSETGCMPELLQRLKGKVPMIGICLGHQAIVEAYGGVVAGAGEIIHGKVSMMEHQNHAIYRGLPSPLAIARYHSLVATQVPSALTVTAEVNGLVMSVVNEADKVCGFQFHPESIMTTHGATLLANAIDWALSSTPAQTQFA | not soluble |
| MINEIKKDAQERMDKSVEALKNNLSKVRTGRAHPSLLSGISVEYYGAATPLNQVANVVAEDARTLAITVFDKELTQKVEKAIMMSDLGLNPMSAGTIIRVPLPPLTEERRKDLVKIVRGEAEGGRVAVRNIRRDANNDLKALLKDKEISEDEDRKAQEEIQKLTDVAVKKIDEVLAAKEKELMEV | soluble |
| MINMKFFNRVEEIKEILSILEEEPNLIYFIYGPINSGKTALINEIINNRLDKNKYVVFYIDLREIFISKYDEFEAKLRATKTFGFRLIIEVLFEEYEDDKKPIEIIRSLIKDAPSLCGIPTPKNTLEEILKKKTTKNVFKYITNILMDIKREGKQPIIIIDELQKIGDMKINGFLIYELFNYFVSLTKHKHLCHVFCLSSDSLFIERVYNEAMLKERVDYILVDDFDKETALKFIDFLSEEILNKKLSDEDKELIYSYVGGKPILIINVIGKLKHKNLKDVLNILLMDEISKLKDFLSNLDYIKPKVNIEEEIIEIRKEDIINALKLFKGKYEIEVDKIPKAVYVYLVKKNILFLYPQRGTLKPQSFLVWNAIKRVL | not soluble |
| MINNSFWQGKRVFVTGHTGFKGGWLSLWLQTMGATVKGYSLTAPTVPSLFETARVADGMQSEIGDIRDQNKLLESIREFQPEIVFHMAAQPLVRLSYSEPVETYSTNVMGTVYLLEAIRHVGGVKAVVNITSDKCYDNKEWIWGYRENEAMGGYDPYSNSKGCAELVTSSYRNSFFNPANYGQHGTAVATVRAGNVIGGGDWALDRIVPDILRAFEQSQPVIIRNPHAIRPWQHVLEPLSGYLLLAQKLYTDGAEYAEGWNFGPNDADATPVKNIVEQMVKYWGEGASWQLDGNAHPHEAHYLKLDCSKAKMQLGWHPRWNLNTTLEYIVGWHKNWLSGTDMHEYSITEINNYMNTK | soluble |
| MINSPRVCIQVQSVYIEAQSSPDNERYVFAYTVTIRNLGRAPVQLLGRYWLITNGNGRETEVQGEGVVGVQPLIAPGEEYQYTSGAIIETPLGTMQGHYEMIDENGVPFSIDIPVFRLAVPTLIH | soluble |
| MIPEEIYKILRKQRYQIDGHTAVKLCGWVRKKMLEDKNCYKSKFYGIETHRCIQCTPSVIWCQQNCIFCWRVLPRDIGIDISQIKEPKWEEPEVVYEKILAMHKRIIMGYAGVLDRVGEKKFKEALEPKHVAISLSGEPTLYPYLDELIKIFHKNGFTTFVVSNGILTDVIEKIEPTQLYISLDAYDLDSYRRICGGKKEYWESILNTLDILKEKKRTCIRTTLIRGYNDDILKFVELYERADVHFIELKSYMHVGYSQKRLKKEDMLQHDEILKLAKMLDENSSYKLIDDSEDSRVALLQNENRKINPKL | soluble |
| MIPHTDIVHNLAEKVVVVRLEKPVTFHNMIAPGKEVEVSLLFFIINNSSSSQTNILAQLMDFFTGNGHLEDLSKISEPEALYAYIAEATA | not soluble |
